The results in this text go back to US20240124602A1.

The target in the assay is canine CD20 (canine) (UniProt Q3C2E2). Put plainly: flow cytometry on canine PBMCs without 18F6 (control), FSC-H/SSC-H subset, Event Count 9100; FL1-H = 2o FITC alone, FL2-H = CD21-PE. In general terms: Flow cytometry measures light scatter and fluorescence of single cells or particles in a stream.
Chain of UniProt Q3C2E2 (Q3C2E2 whole entry): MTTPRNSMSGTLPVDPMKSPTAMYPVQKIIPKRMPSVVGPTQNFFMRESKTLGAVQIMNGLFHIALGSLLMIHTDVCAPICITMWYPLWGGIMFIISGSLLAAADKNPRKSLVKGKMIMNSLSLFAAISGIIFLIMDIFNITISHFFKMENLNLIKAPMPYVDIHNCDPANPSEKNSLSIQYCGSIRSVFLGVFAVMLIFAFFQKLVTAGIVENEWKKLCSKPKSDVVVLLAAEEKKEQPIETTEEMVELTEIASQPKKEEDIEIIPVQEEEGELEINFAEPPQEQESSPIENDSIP

With 2o FITC (antibody), the quadrant number, lower left (FL1-H low, FL2-H low); unit not given is 72.5; the quadrant number, lower right (FL1-H low, FL2-H high); unit not given worked out at 22.9; the quadrant number, upper left (FL1-H high, FL2-H low); unit not given came out at 2.18; the quadrant number, upper right (FL1-H high, FL2-H high); unit not given was found to be 2.37.
